Results published in the supplement of paper PMC7125110.
± gives the standard error. For some assays here: This sample holds only a part of the variants without activity.

B1: glmS ribozyme (parent)
chain: AUAAAAGCGCCAGAACUACAGAAAUGUAGUUGACGAGGAGGAGGUUUAUCGAAUUUUCGGCGGAUGCCUCCAAA

Legend:
Details in all cases: with glucosamine-6-phosphate
glucosamine-6-phosphate [1] = variants of: B1; assay: kcat; higher = faster cleavage; RNA array
Method in brief: (§1)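 Barcoded ribozyme variants were transcribed in situ on sequenced MiSeq chips by E. coli RNA polymerase. At 37 °C, a hybridised Cy3 probe tracked them while glucosamine-6-phosphate (40 μM to 10 mM) in HEPES/KCl/Mg(OAc)2 buffer flowed in and tiles were imaged over ~14 h. Per-tile medians of signals normalised to baseline and to non-cleaving reference variants were fit to one- or two-exponential decays, giving kobs. kcat and KM came from weighted Michaelis–Menten fits across concentrations.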

glucosamine-6-phosphate [2] = variants of: B1; assay: KM; higher = weaker cofactor use; RNA array
Method in brief: as §1

glucosamine-6-phosphate [3] = variants of: B1; assay: self-cleavage kobs at 640 uM GlcN6P; higher = faster cleavage; RNA array
Method in brief: as §1

glucosamine-6-phosphate [4] = variants of: B1; assay: self-cleavage kobs at 2500 uM GlcN6P; higher = faster cleavage; RNA array
Method in brief: as §1

glucosamine-6-phosphate [5] = variants of: B1; assay: self-cleavage kobs at 10000 uM GlcN6P; higher = faster cleavage; RNA array
Method in brief: as §1

glucosamine-6-phosphate [6] = variants of: B1; assay: self-cleavage kobs at 40 uM GlcN6P; higher = faster cleavage; RNA array
Method in brief: as §1

glucosamine-6-phosphate [7] = variants of: B1; assay: self-cleavage kobs at 160 uM GlcN6P; higher = faster cleavage; RNA array
Method in brief: as §1

A12C U45A A64U
kcat (glucosamine-6-phosphate [1]): 0.00036 ± 8.2e-05 s⁻¹
KM (glucosamine-6-phosphate [2]): 5800 ± 2500 µM
self-cleavage kobs at 640 uM GlcN6P (glucosamine-6-phosphate [3]): 2.84e-05 ± 1.2e-05 s⁻¹
self-cleavage kobs at 2500 uM GlcN6P (glucosamine-6-phosphate [4]): 0.000134 ± 3.1e-05 s⁻¹
self-cleavage kobs at 10000 uM GlcN6P (glucosamine-6-phosphate [5]): 0.000223 ± 3.2e-05 s⁻¹

G29A C71G
kcat (glucosamine-6-phosphate [1]): 0.00019 ± 3.4e-05 s⁻¹
self-cleavage kobs at 640 uM GlcN6P (glucosamine-6-phosphate [3]): 9.26e-05 ± 2.3e-05 s⁻¹
self-cleavage kobs at 2500 uM GlcN6P (glucosamine-6-phosphate [4]): 0.000117 ± 2.3e-05 s⁻¹
self-cleavage kobs at 10000 uM GlcN6P (glucosamine-6-phosphate [5]): 0.000204 ± 3.3e-05 s⁻¹

U31A U56C
kcat (glucosamine-6-phosphate [1]): 0.00331 ± 0.0008 s⁻¹
KM (glucosamine-6-phosphate [2]): 2630 ± 990 µM
self-cleavage kobs at 40 uM GlcN6P (glucosamine-6-phosphate [6]): 6.48e-05 ± 1.3e-05 s⁻¹
self-cleavage kobs at 160 uM GlcN6P (glucosamine-6-phosphate [7]): 0.000186 ± 4.2e-05 s⁻¹
self-cleavage kobs at 640 uM GlcN6P (glucosamine-6-phosphate [3]): 0.00066 ± 0.00012 s⁻¹
self-cleavage kobs at 2500 uM GlcN6P (glucosamine-6-phosphate [4]): 0.00115 ± 0.00025 s⁻¹
self-cleavage kobs at 10000 uM GlcN6P (glucosamine-6-phosphate [5]): 0.00299 ± 0.00037 s⁻¹

U55A C61U
kcat (glucosamine-6-phosphate [1]): 1.43e-05 ± 1.1e-06 s⁻¹
KM (glucosamine-6-phosphate [2]): 1930 ± 520 µM

G38C U47A
kcat (glucosamine-6-phosphate [1]): < 1e-05 s⁻¹
self-cleavage kobs at 40 uM GlcN6P (glucosamine-6-phosphate [6]): < 1e-05 s⁻¹
self-cleavage kobs at 160 uM GlcN6P (glucosamine-6-phosphate [7]): < 1e-05 s⁻¹
self-cleavage kobs at 2500 uM GlcN6P (glucosamine-6-phosphate [4]): < 1e-05 s⁻¹
self-cleavage kobs at 10000 uM GlcN6P (glucosamine-6-phosphate [5]): < 1e-05 s⁻¹

C10A U54A
kcat (glucosamine-6-phosphate [1]): < 1e-05 s⁻¹
self-cleavage kobs at 40 uM GlcN6P (glucosamine-6-phosphate [6]): < 1e-05 s⁻¹

U49C A53U
kcat (glucosamine-6-phosphate [1]): < 1e-05 s⁻¹

A12U U49G
kcat (glucosamine-6-phosphate [1]): 0.00213 ± 0.00037 s⁻¹
KM (glucosamine-6-phosphate [2]): 2950 ± 780 µM
self-cleavage kobs at 40 uM GlcN6P (glucosamine-6-phosphate [6]): 3.38e-05 ± 7.4e-06 s⁻¹
self-cleavage kobs at 160 uM GlcN6P (glucosamine-6-phosphate [7]): 9.35e-05 ± 1.5e-05 s⁻¹
self-cleavage kobs at 640 uM GlcN6P (glucosamine-6-phosphate [3]): 0.000495 ± 7.3e-05 s⁻¹
self-cleavage kobs at 2500 uM GlcN6P (glucosamine-6-phosphate [4]): 0.000912 ± 0.00012 s⁻¹
self-cleavage kobs at 10000 uM GlcN6P (glucosamine-6-phosphate [5]): 0.00167 ± 0.00018 s⁻¹

G44A U54A
kcat (glucosamine-6-phosphate [1]): 0.000692 ± 0.00012 s⁻¹
KM (glucosamine-6-phosphate [2]): 2530 ± 870 µM
self-cleavage kobs at 640 uM GlcN6P (glucosamine-6-phosphate [3]): 0.000132 ± 3.9e-05 s⁻¹
self-cleavage kobs at 2500 uM GlcN6P (glucosamine-6-phosphate [4]): 0.00051 ± 0.0002 s⁻¹
self-cleavage kobs at 10000 uM GlcN6P (glucosamine-6-phosphate [5]): 0.000538 ± 0.00011 s⁻¹

A6C C68U
kcat (glucosamine-6-phosphate [1]): 4.51e-05 ± 1.8e-06 s⁻¹
KM (glucosamine-6-phosphate [2]): 534 ± 140 µM
self-cleavage kobs at 2500 uM GlcN6P (glucosamine-6-phosphate [4]): 3.96e-05 ± 9.1e-06 s⁻¹
self-cleavage kobs at 10000 uM GlcN6P (glucosamine-6-phosphate [5]): 4.19e-05 ± 6.8e-06 s⁻¹

C16U G29A
kcat (glucosamine-6-phosphate [1]): 0.0165 ± 0.0058 s⁻¹
self-cleavage kobs at 40 uM GlcN6P (glucosamine-6-phosphate [6]): 0.00117 ± 0.00016 s⁻¹
self-cleavage kobs at 160 uM GlcN6P (glucosamine-6-phosphate [7]): 0.00189 ± 0.00052 s⁻¹
self-cleavage kobs at 640 uM GlcN6P (glucosamine-6-phosphate [3]): 0.0124 ± 0.0019 s⁻¹
self-cleavage kobs at 2500 uM GlcN6P (glucosamine-6-phosphate [4]): 0.0121 ± 0.0031 s⁻¹
self-cleavage kobs at 10000 uM GlcN6P (glucosamine-6-phosphate [5]): 0.0147 ± 0.0029 s⁻¹

A6U A15G U30C
kcat (glucosamine-6-phosphate [1]): 0.000345 ± 9.4e-05 s⁻¹
self-cleavage kobs at 640 uM GlcN6P (glucosamine-6-phosphate [3]): 5.44e-05 ± 2e-05 s⁻¹
self-cleavage kobs at 2500 uM GlcN6P (glucosamine-6-phosphate [4]): 0.00023 ± 6.3e-05 s⁻¹
self-cleavage kobs at 10000 uM GlcN6P (glucosamine-6-phosphate [5]): 0.000255 ± 5.8e-05 s⁻¹

G29C A39G
kcat (glucosamine-6-phosphate [1]): 0.00594 ± 0.0022 s⁻¹
self-cleavage kobs at 40 uM GlcN6P (glucosamine-6-phosphate [6]): 0.000107 ± 1.2e-05 s⁻¹
self-cleavage kobs at 160 uM GlcN6P (glucosamine-6-phosphate [7]): 0.000305 ± 6.8e-05 s⁻¹
self-cleavage kobs at 640 uM GlcN6P (glucosamine-6-phosphate [3]): 0.000768 ± 0.00012 s⁻¹
self-cleavage kobs at 2500 uM GlcN6P (glucosamine-6-phosphate [4]): 0.00223 ± 0.00037 s⁻¹
self-cleavage kobs at 10000 uM GlcN6P (glucosamine-6-phosphate [5]): 0.00525 ± 0.00064 s⁻¹

G13U A33U
kcat (glucosamine-6-phosphate [1]): 1.31e-05 ± 3.3e-07 s⁻¹
KM (glucosamine-6-phosphate [2]): 1490 ± 190 µM
self-cleavage kobs at 40 uM GlcN6P (glucosamine-6-phosphate [6]): < 1e-05 s⁻¹
self-cleavage kobs at 160 uM GlcN6P (glucosamine-6-phosphate [7]): < 1e-05 s⁻¹

C11U G29C
kcat (glucosamine-6-phosphate [1]): 0.00018 ± 9.3e-06 s⁻¹
KM (glucosamine-6-phosphate [2]): 1860 ± 290 µM
self-cleavage kobs at 640 uM GlcN6P (glucosamine-6-phosphate [3]): 4.1e-05 ± 1.1e-05 s⁻¹
self-cleavage kobs at 2500 uM GlcN6P (glucosamine-6-phosphate [4]): 0.000109 ± 1.3e-05 s⁻¹
self-cleavage kobs at 10000 uM GlcN6P (glucosamine-6-phosphate [5]): 0.00015 ± 1.2e-05 s⁻¹

A14U U65C
kcat (glucosamine-6-phosphate [1]): 8.95e-05 ± 1.3e-05 s⁻¹
self-cleavage kobs at 640 uM GlcN6P (glucosamine-6-phosphate [3]): 3.59e-05 ± 8.9e-06 s⁻¹
self-cleavage kobs at 2500 uM GlcN6P (glucosamine-6-phosphate [4]): 9.87e-05 ± 1.3e-05 s⁻¹
self-cleavage kobs at 10000 uM GlcN6P (glucosamine-6-phosphate [5]): 7.83e-05 ± 7.7e-06 s⁻¹
